Assay results taken from patent publication CN113121684A (TIANJIN JIKUN PHARMACEUTICAL TECH CO LTD, dated 2021).

Target: T1, 人源FSTL1蛋白 (卵泡抑素样蛋白1, Follistatin-like 1) (human, UniProt Q12841 21-308, limits assumed)
T1 construct: Soluble protein, used as analyte in SPR and as labelled ligand in MST; The construct is not described; also called 抗原; 靶点蛋白
T1 sequence (looked up): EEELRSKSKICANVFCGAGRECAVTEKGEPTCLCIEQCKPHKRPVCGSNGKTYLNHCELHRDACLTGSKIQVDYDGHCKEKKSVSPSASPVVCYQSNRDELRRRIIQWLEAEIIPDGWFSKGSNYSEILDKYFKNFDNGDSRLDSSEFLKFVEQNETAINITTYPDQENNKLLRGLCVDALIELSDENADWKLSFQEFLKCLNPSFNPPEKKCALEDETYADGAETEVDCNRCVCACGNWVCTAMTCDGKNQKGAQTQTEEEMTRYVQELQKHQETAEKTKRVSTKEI
Experiment: SPR (Biacore T200), antibody amine-coupled on CM5 chip, FSTL1 protein injected

B1: 人源FSTL1中和性抗体JK07 (全长IgG) (antibody, V domains shown)
VH: QVQLVQSGAEVKKPGSTVKVSCKSSEGTFNNYGISWIRQAPGQGLEWMGGVIPIIGIGNFPQKFQDRVTMTADKFTGTAYMELSSLRSEDTAVYYCARHLGGRNSYDVFDIWGQGTLVTVSS
VL: EIVLTQSPLSLPVTLGQTASISCRSSHSLVQSNGNTYLTWFQQRPGQSPRRLIYKVSSRDSGVPDRFSGSGSGTDFTLKISRVEAEDVGVYYCMQARQTPWTFGQGTKVEIKR
notes: also called JK07抗体
B1 was tested, and the Kd was 6.17 nM.
